B1: PgiDAH7PS-CM (bifunctional 3-deoxy-D-arabino heptulosonate-7-phosphate synthase / chorismate mutase from Porphyromonas gingivalis) (enzyme, UniProt B2RJM7 1-366, looked up)
chain: MKYCDFTPLPLPSEPNTTVIAGPCSAESEEQIMTTARALRDEAGIRIFRAGLWKPRTLPGCFEGVGETGLPWLVRVQDELDMLATTEVATREHVEQAMQAGIRILWLGARTTSNPFAVQEIADTIGKDESVIVLVKNPISPDLDLWTGALERLRQSGVRQIGAIHRGFSTYATKTFRNPPHWQIPFDLKRRFPSLTILCDPSHITGQRDRIESVSQQAMEMNFDGLIIESHCCPDKALSDASQQITPTVLAQILRRLRIPRRQSEKQDEELISWRMQIDQIDESIVELLARRMQVAYEIGLFKKEHNLAVVQNLRYEQLQRNRARTAALLGLDETFISELFSRIHEESVRLQTLAPQKPHTDDCIS
notes: PgiDAH7PS-CM, Porphyromonas gingivalis, UniProt B2RJM7, 366 amino acid residues; DAH7PS domain 17-253, 11-residue linker, CM domain 265-356; codon-optimised synthetic gene in pET28a; Homodimer by analytical SEC (68 ± 6 kDa against a theoretical monomer of 42 kDa); also called full-length PgiDAH7PS-CM; PgiDAH7PS^WT; source: E. coli BL21 (DE3), purified (HisTrap HP, TEV digestion, second HisTrap); …
B2: PgiCM (separated CM domain of PgiDAH7PS-CM) (domain or fragment, Porphyromonas gingivalis, UniProt B2RJM7 259-366, looked up)
chain: IPRRQSEKQDEELISWRMQIDQIDESIVELLARRMQVAYEIGLFKKEHNLAVVQNLRYEQLQRNRARTAALLGLDETFISELFSRIHEESVRLQTLAPQKPHTDDCIS
notes: C-terminal part of PgiDAH7PS-CM, Porphyromonas gingivalis, UniProt B2RJM7, split between R258 and I259; theoretical monomer MW 13 kDa; source: E. coli BL21 (DE3), purified (HisTrap HP, TEV digestion, second HisTrap); not shown: His6, N-terminal, cleaved

Target: the molecule itself
Assay: SEC; analytical SEC on ENrich SEC 650 calibrated with mass standards; 50 mM BTP pH 7.4, 4°C, protein loaded at 1 mg/mL, 0.2 mL/min; apparent mass compared with theoretical monomer mass

Protein | stoichiometry N
B1 | 2
B2 | 2

Reference: PMC12202928, “Bidirectional interdomain crosstalk in a Porphyromonas gingivalis chimeric enzyme coordinates catalytic synergy for aromatic amino acid biosynthesis” (Frontiers in Microbiology, 2025)
